In this data set the test system is HfqBc (Hfq6) (Burkholderia cenocepacia J2315). Description: EMSA. To be noted: no MtvR; complexes seen only at 500 nM HfqBc or higher; excess yeast tRNA; 20 mM Tris-Cl pH 8.0, 1 mM DTT, 1 mM MgCl2, 10 mM KCl, 10 mM KH2PO4, excess yeast tRNA, 30 min at 25 C; native 8% PAGE with 10% glycerol. For orientation: A gel shift assay detects complexes by their altered migration in electrophoresis.

Results on 1 substance are retold here after publication PMC4046987.

The substance hfqEc full mRNA (5'-UTR + CDS) came in with a Kd of 11.6 µM.

By Kd is commonly meant the concentration at which binding is half-saturated. Low values mean a tighter complex, high ones a looser complex.
